The record followed here is US20150246959A1 (published 2015).

In experiment [1] the target is T1, MAGE-A1 peptide on HLA-DPB1*04:01 (human).
T1 peptide: KKLLTQDLVQEKYLEY
Nature of the experiment: cytokine release.

Experiment [2] addresses T2, MAGE-A12 peptide on HLA-DPB1*04:01 (human).
T2 peptide: KKLLTQDLVQENYLEY
Nature of the experiment: cytokine release.

The target in experiment [3] is T3, MAGE-A3 peptide on HLA-DPB1*04:01 (human).
T3 peptide: KKLLTQHFVQENYLEY
Nature of the experiment: cytokine release.

For experiment [4], the target named is T4, MAGE-A3 peptide on HLA-DPB1*04:01 (human).
T4 peptide: QHFVQENYLEY
Nature of the experiment: cytokine release.

Experiment [5] deals with T5, MAGE-A3 peptide on HLA-DPB1*04:01 (human).
T5 peptide: LLTQHFVQENYLEY
Put plainly: cytokine release.

In experiment [6] the target is T6, MAGE-A2/A12 peptide on HLA-DPB1*04:01 (human).
T6 peptide: QDLVQENYLEY
Nature of the experiment: cytokine release.

Experiment [7] addresses T7, MAGE-B2 peptide on HLA-DPB1*04:01 (human).
T7 peptide: KDLVQEKYLEY
Put plainly: cytokine release.

Experiment [8] concerns the target T8, MAGE-C1 peptide on HLA-DPB1*04:01 (human).
T8 peptide: KVWVQEHYLEY
Nature of the experiment: cytokine release.

In experiment [9] the target is T9, MAGE-A3 peptide on HLA-DPB1*04:02 (human).
T9 peptide: QHFVQENYLEY
Nature of the experiment: cytokine release.

Experiment [10] deals with T10, MAGE-G1 peptide on HLA-DPB1*04:01 (human).
T10 peptide: KKLITEDFVRQRYLEY
Put plainly: cytokine release.

Experiment [11] addresses T11, MAGE-A3 peptide on HLA-DPB1*04:01 (human).
T11 peptide: LTQHFVQENYLEY
Nature of the experiment: cytokine release.

In experiment [12] the target is T12, MAGE-A6 peptide on HLA-DPB1*04:01 (human).
T12 peptide: QYFVQENYLEY
Nature of the experiment: cytokine release.

The target in experiment [13] is T13, MAGE-B16 peptide on HLA-DPB1*04:01 (human).
T13 peptide: KDFVKEKYLEY
Nature of the experiment: cytokine release.

Experiment [14] addresses T14, MAGE-A3 peptide on HLA-DPB1*04:01 (human).
T14 peptide: KKLLTQHFVQE
Nature of the experiment: cytokine release.

The target in experiment [15] is T15, MAGE-A8 peptide on HLA-DPB1*04:01 (human).
T15 peptide: QEWVQENYLEY
Put plainly: cytokine release.

The target of experiment [16] is T16, MAGE-A4/A9 peptide on HLA-DPB1*04:01 (human).
T16 peptide: QDWVQENYLEY
Nature of the experiment: cytokine release.

For experiment [17], the target named is T17, MAGE-A3 peptide on HLA-DPB1*04:01 (human).
T17 peptide: KKLLTQHFVQEN
Put plainly: cytokine release.

Experiment [18] concerns the target T18, MAGE-L2 peptide on HLA-DPB1*04:01 (human).
T18 peptide: KKLITEVFVRQKYLEY
Put plainly: cytokine release.

The target of experiment [19] is T19, Necdin peptide on HLA-DPB1*04:01 (human).
T19 peptide: EEFVQMNYLKY
Put plainly: cytokine release.

Experiment [20] addresses T20, MAGE-A3 peptide on HLA-DPB1*04:01 (human).
T20 peptide: TQHFVQENYLEY
Put plainly: cytokine release.

The target of experiment [21] is T21, MAGE-B10 peptide on HLA-DPB1*04:01 (human).
T21 peptide: KDLVKENYLEY
Nature of the experiment: cytokine release.

In experiment [22] the target is T3, MAGE-A3 peptide on HLA-DPB1*04:01. Nature of the experiment: multimer staining.

B1: R12C9 TCR (TCR, V domains shown)
Valpha: AQTVTQSQPEMSVQEAETVTLSCTYDTSESDYYLFWYKQPPSRQMILVIRQEAYKQQNATENRFSVNFQKAAKSFSLKISDSQLGDAAMYFCAYTVPSNAGGTSYGKLTFGQGTILTVHP
Vbeta: EPEVTQTPSHQVTQMGQEVILRCVPISNHLYFYWYRQILGQKVEFLVSFYNNEISEKSEIFDDQFSVERPDGSNFTLKIRSTKLEDSAMYFCASSERGQGYGYTFGSGTRLTVV
As for B1, the values for the binding result in experiment [1], in experiment [2] and in experiment [3] were “no recognition”, “no recognition” and “recognises”, respectively.

B2: 6F9 TCR (TCR, V domains shown)
Valpha: AQTVTQSQPEMSVQEAETVTLSCTYDTSESDYYLFWYKQPPSRQMILVIRQEAYKQQNATENRFSVNFQKAAKSFSLKISDSQLGDAAMYFCALRSSGTYKYIFGTGTRLKVLA
Vbeta: GAGVSQSPSNKVTEKGKDVELRCDPISGHTALYWYRQSLGQGLEFLIYFQGNSAPDKSGLPSDRFSAERTGGSVSTLTIQRTQQEDSAVYLCASIRTGPFFSGNTIYFGEGSWLTVV
With B2, the binding result in experiment [4] was “recognises”; in experiment [5], “recognises”; in experiment [6], “no recognition”; in experiment [7], “no recognition”; in experiment [8] it was “no recognition”; in [9], “recognises”. For the same molecule, the binding result in experiment [10] is recorded as “no recognition”; in experiment [11], “recognises”; in experiment [12], “recognises”; in experiment [13], “no recognition”; in experiment [14], “no recognition”; in experiment [15], “no recognition”. Further, the binding result in experiment [16] is “no recognition”; in [17] it was “no recognition”; in [1], “no recognition”; in experiment [18], “no recognition”; in [19], “no recognition”; in [20], “recognises”. Further, the results for the binding result in experiment [2], in experiment [21] and in experiment [22] were “no recognition”, “no recognition” and “recognises”, respectively.
